# According to patent publication US8815798B2, “Insulin analogues containing additional disulfide bonds” (priority 2010, dated 2014):
# Key:
# Human Insulin Receptor A = biological target: T1, Human Insulin Receptor A (Homo sapiens, UniProt P06213); experiment: Insulin receptor binding assay (on solubilised insulin receptor), SPA; conditions: SPA competition with [125I]A14Tyr-labelled insulin, solubilized human IR-A
# T1 construct: solubilized human IR (holoreceptor); made in house; host or cells: baby hamster kidney (BHK) cells stably transfected with pZem vector containing the human IR-A insert
# Method: (2008), Biochemistry, 47, 4743-4751). Competition binding experiments were performed in 96-well plates (polystyrene Optiplate-96, PerkinElmer) on an Eppendorf epMotion 5075 robot using solubilized human IR (holoreceptor) semipurified by wheat germ agglutinin purification from baby hamster kidney (BHK) cells, which were stably transfected with the pZem vector containing the human IR-A or IR-B insert. […] A reagent mix consisting of SPA beads (SPA PVT Antibody-Binding Beads, Anti-Mouse Reagent Cat. No. […] (2008), Biochemistry, 47, 4743-4751). Competition binding experiments were performed in 96-well plates (polystyrene OPTIPLATE-96TM, PerkinElmer) on an Eppendorf EPMOTION® 5075 robot using solubilized human IR (holoreceptor) semipurified by wheat germ agglutinin purification from baby hamster kidney (BHK) cells, which were stably transfected with the pZem vector containing the human IR-A or IR-B insert. […] A reagent mix consisting of SPA beads (SPA PVT Antibody-Binding Beads, Anti-Mouse Reagent Cat. No.
# [1] = Thioflavin T (ThT) fibrillation assay; format: physicochemical; conditions: mean of four samples with standard deviation, 37° C., 960 rpm
# Excerpt: General Procedure for Thioflavin T (ThT) Fibrillation Assay:
# This has traditionally been measured by visual inspection of the sample. However, that kind of measurement is very subjective and depending on the observer. Therefore the application of a small molecule indicator probe is much preferred. […] The time course for fibril formation can be described by a sigmoidal curve with the following expression (Nielsen at al. Biochemistry 40, 6036-6046, 2001):
# Here, F is the ThT fluorescence at the time t. The constant t0 is the time needed to reach 50% of maximum fluorescence.
# Samples were prepared freshly before each assay. […] Thioflavin T was added to the samples from a stock solution in water to a final concentration of 1 μM. Sample aliquots of 200 μl were placed in a 96 well microtiter plate (Packard Optiplate™-96, white polystyrene). Usually four replica of each sample (corresponding to one test condition) were placed in one column of wells. The plate was sealed with Scotch Pad (Qiagen).
# The temperature was adjusted to 37° C. […] Fluorescence measurements were done using excitation through a 444 nm filter and measurement of emission through a 485 nm filter.
# Each run was initiated by incubating the plate at the assay temperature for 10 min. The plate was measured every 20 minutes for typically 45 hours. Between each measurement, the plate was shaken and heated as described above.
# The data points are typically a mean of four samples. Only data obtained in the same experiment (i.e. samples on the same plate) are presented in the same graph ensuring a relative measure of fibrillation between the individual samples of one assay rather then comparison between different assays.
# The data set may be fitted to Eq. (1).
# [2] = Hydrophobicity by isocratic reverse phase HPLC (k'rel); format: physicochemical; conditions: hydrophobicity relative to human insulin (k'rel HI = 1); isocratic RP-HPLC, pH 7.3
# Method: The hydrophobicity, k′rel, is calculated as: k′relderiv=((tderiv−t0)/(trel−t0))*k′relref. Using HI as reference: k′relref=k′relHI=1. The void time of the HPLC system, t0, is determined by injecting 5 μl of 0.1 mM NaNO3. Running conditions:
# Column: Lichrosorb RP-C18, 5 μm, 4×250 mm
# Buffer A: 0.1 M natrium phosphate pH 7.3, 10 vol % CH3CN
# After running an initial gradient, the isocratic level for running the analogue and reference (for example HI) is chosen, and the elution times of the analogue and reference under isocratic conditions are used in the above equation to calculate k′relderiv.
# Primary rat adipocytes = experiment: Lipogenesis in rat adipocytes; format: cell-based; conditions: 3H-glucose conversion into extractable lipids; relative potency compared to human insulin
# Excerpt: As a measure of in vitro potency of the insulins of the invention, lipogenesis can be used.
# The labelled glucose is converted into extractable lipids in a dose dependent way, resulting in full dose response curves.
# T1 sequence (P06213 28-746 isoform P06213-2 limits assumed): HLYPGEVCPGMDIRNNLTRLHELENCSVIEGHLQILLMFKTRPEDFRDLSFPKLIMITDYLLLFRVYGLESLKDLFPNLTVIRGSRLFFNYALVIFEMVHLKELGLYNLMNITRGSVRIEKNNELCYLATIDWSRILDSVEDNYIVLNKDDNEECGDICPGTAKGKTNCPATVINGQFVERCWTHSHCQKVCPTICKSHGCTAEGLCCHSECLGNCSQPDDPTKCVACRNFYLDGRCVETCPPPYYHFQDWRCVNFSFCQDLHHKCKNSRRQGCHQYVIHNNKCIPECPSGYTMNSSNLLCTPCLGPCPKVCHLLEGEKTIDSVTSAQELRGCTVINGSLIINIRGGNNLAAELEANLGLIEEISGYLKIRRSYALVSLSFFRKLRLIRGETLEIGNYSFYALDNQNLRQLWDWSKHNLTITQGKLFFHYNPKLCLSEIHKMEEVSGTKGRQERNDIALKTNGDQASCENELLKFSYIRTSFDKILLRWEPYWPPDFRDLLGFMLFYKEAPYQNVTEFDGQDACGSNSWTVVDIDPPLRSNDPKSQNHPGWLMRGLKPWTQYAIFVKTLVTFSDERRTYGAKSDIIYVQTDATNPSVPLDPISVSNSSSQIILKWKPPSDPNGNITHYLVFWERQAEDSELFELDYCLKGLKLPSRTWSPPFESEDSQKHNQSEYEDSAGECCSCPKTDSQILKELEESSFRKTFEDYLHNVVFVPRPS
# T1 sequence (P06213 763-1382 partner limits assumed): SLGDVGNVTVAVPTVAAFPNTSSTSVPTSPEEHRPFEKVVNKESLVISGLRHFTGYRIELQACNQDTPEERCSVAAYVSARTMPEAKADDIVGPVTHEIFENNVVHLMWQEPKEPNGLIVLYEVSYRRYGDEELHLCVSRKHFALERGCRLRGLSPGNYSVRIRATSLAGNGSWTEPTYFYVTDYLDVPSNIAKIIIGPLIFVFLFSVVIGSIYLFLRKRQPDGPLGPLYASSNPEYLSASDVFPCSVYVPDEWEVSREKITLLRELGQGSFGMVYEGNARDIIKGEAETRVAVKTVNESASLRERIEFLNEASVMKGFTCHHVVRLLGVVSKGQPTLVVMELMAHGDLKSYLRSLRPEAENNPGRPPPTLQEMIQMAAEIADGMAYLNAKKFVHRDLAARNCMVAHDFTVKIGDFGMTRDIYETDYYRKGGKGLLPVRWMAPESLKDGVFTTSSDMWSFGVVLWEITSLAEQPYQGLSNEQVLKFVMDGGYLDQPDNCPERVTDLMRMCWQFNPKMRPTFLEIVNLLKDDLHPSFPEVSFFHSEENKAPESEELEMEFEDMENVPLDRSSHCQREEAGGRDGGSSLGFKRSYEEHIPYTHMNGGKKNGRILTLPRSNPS
substance,measurement,setting,value
"A10C, A21G, B2C, B3E, B28E, desB30 human insulin [Example 17]",Relative Affinity to Human Insulin Receptor A (% HI),Human Insulin Receptor A,80.0 % HI
"A10C, A21G, B3C, desB27, B28E, desB30 human insulin [Example 23]",Relative Affinity to Human Insulin Receptor A (% HI),Human Insulin Receptor A,20.0 % HI
"A10C, A22K, B3C, desB27, desB30 human insulin [Example 28]","ThT fluorescence, 0 h",[1]; 0 h,35.8 ± 0.9
same,"ThT fluorescence, 2 h",[1]; 2 h,29.4 ± 1
same,"ThT fluorescence, 20 h",[1]; 20 h,27.6 ± 0.8
same,"ThT fluorescence, 45 h",[1]; 45 h,25 ± 0.7
same,k′-rel (human insulin),[2],0.0810
same,Lipogenesis (potency rel to HI),Primary rat adipocytes,25.3%
"A21C, B10E, B26C, desB30 human insulin [Example 78]",Relative Affinity to Human Insulin Receptor A (% HI),Human Insulin Receptor A,10.0 % HI
